Measured values taken from the supplement of paper PMC9233669.
Fewer inactive variants are shown than the library holds.

Tests used:
[1] = system: biotinyl-Val-oxazolone; assay: self-aminoacylation, catalytic enhancement (BVO) (fold over background); higher = more active; k-Seq, kA / k0A0; sequences stand for … in GGGAAUGGAUCCACAUCUACGAAUUC…UUCACUGCAGACUUGACGAAGCUG
Method in brief: (§1)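 Mutagenized RNA pools with a 21-nt variable region (0.43 μM) reacted with each biotinyl-aminoacyl-oxazolone at 2–1250 μM. Reactions ran in 50 μL HEPES/NaCl/KCl/MgCl2/CaCl2 buffer with 5% acetonitrile, pH 6.9–7.0, for 90 minutes at room temperature. Streptavidin-captured RNA was quantified by triplicate qPCR and Illumina sequencing, and per-sequence fraction reacted was fit to a pseudo-first-order model with 1000 bootstraps. Catalytic enhancement is median kA divided by the uncatalyzed rate, the low-activity peak of a bimodal Gaussian fit.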

[2] = system: biotinyl-Ile-oxazolone; assay: self-aminoacylation, catalytic enhancement (BIO) (fold over background); higher = more active; k-Seq, kA / k0A0; sequences stand for … in GGGAAUGGAUCCACAUCUACGAAUUC…UUCACUGCAGACUUGACGAAGCUG
Method in brief: as §1

[3] = system: biotinyl-Leu-oxazolone; assay: self-aminoacylation, catalytic enhancement (BLO) (fold over background); higher = more active; k-Seq, kA / k0A0; sequences stand for … in GGGAAUGGAUCCACAUCUACGAAUUC…UUCACUGCAGACUUGACGAAGCUG
Method in brief: as §1

[4] = system: biotinyl-Met-oxazolone; assay: self-aminoacylation, catalytic enhancement (BMO) (fold over background); higher = more active; k-Seq, kA / k0A0; sequences stand for … in GGGAAUGGAUCCACAUCUACGAAUUC…UUCACUGCAGACUUGACGAAGCUG
Method in brief: as §1

[5] = system: biotinyl-Phe-oxazolone; assay: self-aminoacylation, catalytic enhancement (BFO) (fold over background); higher = more active; k-Seq, kA / k0A0; sequences stand for … in GGGAAUGGAUCCACAUCUACGAAUUC…UUCACUGCAGACUUGACGAAGCUG
Method in brief: as §1

[6] = system: biotinyl-Trp-oxazolone; assay: self-aminoacylation, catalytic enhancement (BWO) (fold over background); higher = more active; k-Seq, kA / k0A0; sequences stand for … in GGGAAUGGAUCCACAUCUACGAAUUC…UUCACUGCAGACUUGACGAAGCUG
Method in brief: as §1

CCACACUUCAUGCAAUCGUUC [Fam1B.1 aminoacylation ribozyme variant]
self-aminoacylation [1]: 0.699
self-aminoacylation [2]: 0.737
self-aminoacylation [3]: 0.513
self-aminoacylation [4]: 0.566
self-aminoacylation [5]: 0.835
self-aminoacylation [6]: 0.373

CCACACUUCAUGCAAUGGGUC [Fam1B.1 aminoacylation ribozyme variant]
self-aminoacylation [1]: 0.712
self-aminoacylation [2]: 0.751
self-aminoacylation [3]: 0.704
self-aminoacylation [4]: 0.738
self-aminoacylation [5]: 0.544
self-aminoacylation [6]: 0.569

CCACACUUCCAGAAAUCGGUC [Fam1B.1 aminoacylation ribozyme variant]
self-aminoacylation [1]: 1.06
self-aminoacylation [2]: 0.933
self-aminoacylation [3]: 1.13
self-aminoacylation [4]: 0.808
self-aminoacylation [5]: 1.69
self-aminoacylation [6]: 0.976

CCACACUUCCAGCAAUCGGCC [Fam1B.1 aminoacylation ribozyme variant]
self-aminoacylation [1]: 4.01
self-aminoacylation [2]: 3.06
self-aminoacylation [3]: 2.42
self-aminoacylation [4]: 2.08
self-aminoacylation [5]: 3.34
self-aminoacylation [6]: 4.06

CCACACUUCGAGCAAACGGUC [Fam1B.1 aminoacylation ribozyme variant]
self-aminoacylation [1]: 0.655
self-aminoacylation [2]: 0.678
self-aminoacylation [3]: 0.632
self-aminoacylation [4]: 0.663
self-aminoacylation [5]: 0.648
self-aminoacylation [6]: 0.57

CCACACUUCGAGCAAGCGGUC [Fam1B.1 aminoacylation ribozyme variant]
self-aminoacylation [1]: 1.19
self-aminoacylation [2]: 0.864
self-aminoacylation [3]: 0.874
self-aminoacylation [4]: 0.927
self-aminoacylation [5]: 0.487
self-aminoacylation [6]: 0.82

CCACACUUCGAGCAAUCAGUC [Fam1B.1 aminoacylation ribozyme variant]
self-aminoacylation [1]: 0.625
self-aminoacylation [2]: 0.666
self-aminoacylation [3]: 0.52
self-aminoacylation [4]: 0.488
self-aminoacylation [5]: 0.892
self-aminoacylation [6]: 0.695

CCACACUUCGAGCAAUCGGCC [Fam1B.1 aminoacylation ribozyme variant]
self-aminoacylation [1]: 2.77
self-aminoacylation [2]: 1.64
self-aminoacylation [3]: 1.94
self-aminoacylation [4]: 1.61
self-aminoacylation [5]: 7.13
self-aminoacylation [6]: 2.11

CCACACUUCGAGCAUUCGGUC [Fam1B.1 aminoacylation ribozyme variant]
self-aminoacylation [1]: 2.2
self-aminoacylation [2]: 1.97
self-aminoacylation [3]: 1.72
self-aminoacylation [4]: 1.67
self-aminoacylation [5]: 1.18
self-aminoacylation [6]: 1.54

CCACACUUCGAGCGAUCGGUC [Fam1B.1 aminoacylation ribozyme variant]
self-aminoacylation [1]: 1.69
self-aminoacylation [2]: 1.43
self-aminoacylation [3]: 1.86
self-aminoacylation [4]: 1.64
self-aminoacylation [5]: 2.95
self-aminoacylation [6]: 1.38

CCACACUUCUAGCAACCGGUC [Fam1B.1 aminoacylation ribozyme variant]
self-aminoacylation [1]: 0.946
self-aminoacylation [2]: 0.817
self-aminoacylation [3]: 0.868
self-aminoacylation [4]: 0.681
self-aminoacylation [5]: 0.818
self-aminoacylation [6]: 0.402

CCACACUUCUAGCAAUCAGUC [Fam1B.1 aminoacylation ribozyme variant]
self-aminoacylation [1]: 0.721
self-aminoacylation [2]: 0.797
self-aminoacylation [3]: 0.622
self-aminoacylation [4]: 0.648
self-aminoacylation [5]: 1.14
self-aminoacylation [6]: 0.459

CCACACUUCUAGCAAUCUGUC [Fam1B.1 aminoacylation ribozyme variant]
self-aminoacylation [1]: 0.502
self-aminoacylation [2]: 0.424
self-aminoacylation [3]: 0.354
self-aminoacylation [4]: 0.378
self-aminoacylation [5]: 0.693
self-aminoacylation [6]: 0.292

CCACACUUGACGCAAUCGGUC [Fam1B.1 aminoacylation ribozyme variant]
self-aminoacylation [1]: 1.43
self-aminoacylation [2]: 1.4
self-aminoacylation [3]: 1.21
self-aminoacylation [4]: 1.44
self-aminoacylation [5]: 1.18
self-aminoacylation [6]: 1.54

CCACACUUUAAGCAAUCAGUC [Fam1B.1 aminoacylation ribozyme variant]
self-aminoacylation [1]: 0.874
self-aminoacylation [2]: 0.76
self-aminoacylation [3]: 0.69
self-aminoacylation [4]: 0.541
self-aminoacylation [5]: 1.03
self-aminoacylation [6]: 0.749

CCACACUUUAAGCAAUCGUUC [Fam1B.1 aminoacylation ribozyme variant]
self-aminoacylation [1]: 0.849
self-aminoacylation [2]: 0.669
self-aminoacylation [3]: 0.543
self-aminoacylation [4]: 0.566
self-aminoacylation [5]: 0.911
self-aminoacylation [6]: 0.575

CCACACUUUAAGGAAUCGGUC [Fam1B.1 aminoacylation ribozyme variant]
self-aminoacylation [1]: 0.826
self-aminoacylation [2]: 0.862
self-aminoacylation [3]: 0.725
self-aminoacylation [4]: 0.717
self-aminoacylation [5]: 0.557
self-aminoacylation [6]: 0.644

CCACACUUUAAGUAAUCGGUC [Fam1B.1 aminoacylation ribozyme variant]
self-aminoacylation [1]: 0.694
self-aminoacylation [2]: 0.653
self-aminoacylation [3]: 0.667
self-aminoacylation [4]: 0.632
self-aminoacylation [5]: 0.978
self-aminoacylation [6]: 0.677

CCACAGUUCAACCAAUCGGUC [Fam1B.1 aminoacylation ribozyme variant]
self-aminoacylation [1]: 1.26
self-aminoacylation [2]: 1.28
self-aminoacylation [3]: 1.51
self-aminoacylation [4]: 1.23
self-aminoacylation [5]: 6.48
self-aminoacylation [6]: 5.76

CCACAGUUCAAGCAAUCCGUC [Fam1B.1 aminoacylation ribozyme variant]
self-aminoacylation [1]: 1.2
self-aminoacylation [2]: 1.19
self-aminoacylation [3]: 1.16
self-aminoacylation [4]: 1.13
self-aminoacylation [5]: 1.11
self-aminoacylation [6]: 1.04

CCACAGUUCAAGCAAUCGGGC [Fam1B.1 aminoacylation ribozyme variant]
self-aminoacylation [1]: 2.42
self-aminoacylation [2]: 2.04
self-aminoacylation [3]: 2.18
self-aminoacylation [4]: 2.81
self-aminoacylation [5]: 10
self-aminoacylation [6]: 3.13

CCACAGUUCAAGCAAUCGUUC [Fam1B.1 aminoacylation ribozyme variant]
self-aminoacylation [1]: 0.845
self-aminoacylation [2]: 0.771
self-aminoacylation [3]: 0.743
self-aminoacylation [4]: 0.742
self-aminoacylation [5]: 0.594
self-aminoacylation [6]: 0.472

CCACAGUUCAAGCUAUCGGUC [Fam1B.1 aminoacylation ribozyme variant]
self-aminoacylation [1]: 1.27
self-aminoacylation [2]: 1.21
self-aminoacylation [3]: 1.1
self-aminoacylation [4]: 1.25
self-aminoacylation [5]: 0.851
self-aminoacylation [6]: 0.749

CCACAGUUCAAGGAAUCGGUC [Fam1B.1 aminoacylation ribozyme variant]
self-aminoacylation [1]: 1.19
self-aminoacylation [2]: 1.23
self-aminoacylation [3]: 1.33
self-aminoacylation [4]: 1.12
self-aminoacylation [5]: 1.09
self-aminoacylation [6]: 1.18

CCACAGUUCAGGCAAUCGGUC [Fam1B.1 aminoacylation ribozyme variant]
self-aminoacylation [1]: 2.27
self-aminoacylation [2]: 2.02
self-aminoacylation [3]: 2.28
self-aminoacylation [4]: 1.65
self-aminoacylation [5]: 8.63
self-aminoacylation [6]: 2.25

CCACAUCUCAAGCAAUCGGUC [Fam1B.1 aminoacylation ribozyme variant]
self-aminoacylation [1]: 1.33
self-aminoacylation [2]: 1.3
self-aminoacylation [3]: 1.19
self-aminoacylation [4]: 0.985
self-aminoacylation [5]: 1.41
self-aminoacylation [6]: 1.08

CCACAUUGCAAGCAAUCGGUC [Fam1B.1 aminoacylation ribozyme variant]
self-aminoacylation [1]: 1.68
self-aminoacylation [2]: 1.75
self-aminoacylation [3]: 1.87
self-aminoacylation [4]: 1.67
self-aminoacylation [5]: 1.99
self-aminoacylation [6]: 1.58

CCACAUUUCAAGCAAUCGGUG [Fam1B.1 aminoacylation ribozyme variant]
self-aminoacylation [1]: 5.89
self-aminoacylation [2]: 6.23
self-aminoacylation [3]: 12.9
self-aminoacylation [4]: 8.9
self-aminoacylation [5]: 59.1
self-aminoacylation [6]: 9.35

CCACAUUUCAAGCAAUCGUUC [Fam1B.1 aminoacylation ribozyme variant]
self-aminoacylation [1]: 1.16
self-aminoacylation [2]: 0.94
self-aminoacylation [3]: 0.798
self-aminoacylation [4]: 0.83
self-aminoacylation [5]: 1.13
self-aminoacylation [6]: 0.727

CCACAUUUCAAGCAAUUGGUC [Fam1B.1 aminoacylation ribozyme variant]
self-aminoacylation [1]: 0.994
self-aminoacylation [2]: 1.22
self-aminoacylation [3]: 0.857
self-aminoacylation [4]: 1.17
self-aminoacylation [5]: 0.932
self-aminoacylation [6]: 0.656

CCACCCUUAAAGCAAUCGGUC [Fam1B.1 aminoacylation ribozyme variant]
self-aminoacylation [1]: 1.18
self-aminoacylation [2]: 1.23
self-aminoacylation [3]: 1.05
self-aminoacylation [4]: 0.96
self-aminoacylation [5]: 1.59
self-aminoacylation [6]: 1.4

CCACCCUUCAAGCAAUCGCUC [Fam1B.1 aminoacylation ribozyme variant]
self-aminoacylation [1]: 2.28
self-aminoacylation [2]: 1.65
self-aminoacylation [3]: 2.55
self-aminoacylation [4]: 1.87
self-aminoacylation [5]: 0.977
self-aminoacylation [6]: 2.73

CCACCCUUCAAGCAAUCGGUC [Fam1B.1 aminoacylation ribozyme variant]
self-aminoacylation [1]: 1.32
self-aminoacylation [2]: 1.05
self-aminoacylation [3]: 1.16
self-aminoacylation [4]: 0.936
self-aminoacylation [5]: 19.9
self-aminoacylation [6]: 11.3

CCACCCUUCAAGCUAUCGGUC [Fam1B.1 aminoacylation ribozyme variant]
self-aminoacylation [1]: 1.43
self-aminoacylation [2]: 1.08
self-aminoacylation [3]: 1.11
self-aminoacylation [4]: 0.845
self-aminoacylation [5]: 0.937
self-aminoacylation [6]: 1.09

CCACCCUUCAAGUAAUCGGUC [Fam1B.1 aminoacylation ribozyme variant]
self-aminoacylation [1]: 1.25
self-aminoacylation [2]: 1.15
self-aminoacylation [3]: 1.13
self-aminoacylation [4]: 1.18
self-aminoacylation [5]: 7.55
self-aminoacylation [6]: 7.3

CCACCUUUCAAGCAAUCGGUC [Fam1B.1 aminoacylation ribozyme variant]
self-aminoacylation [1]: 1.72
self-aminoacylation [2]: 1.44
self-aminoacylation [3]: 1.35
self-aminoacylation [4]: 1.4
self-aminoacylation [5]: 2.62
self-aminoacylation [6]: 1.97

CCACGAUUCAAGCAAUCGGUC [Fam1B.1 aminoacylation ribozyme variant]
self-aminoacylation [1]: 1.47
self-aminoacylation [2]: 1.51
self-aminoacylation [3]: 1.17
self-aminoacylation [4]: 1.78
self-aminoacylation [5]: 1.89
self-aminoacylation [6]: 1.95

CCACGCUUCAACCAAUCGGUC [Fam1B.1 aminoacylation ribozyme variant]
self-aminoacylation [1]: 1.55
self-aminoacylation [2]: 1.16
self-aminoacylation [3]: 1.99
self-aminoacylation [4]: 1.37
self-aminoacylation [5]: 65.2
self-aminoacylation [6]: 40.4

CCACGCUUCAAGCAAUCAGUC [Fam1B.1 aminoacylation ribozyme variant]
self-aminoacylation [1]: 0.83
self-aminoacylation [2]: 0.745
self-aminoacylation [3]: 0.886
self-aminoacylation [4]: 0.811
self-aminoacylation [5]: 27.4
self-aminoacylation [6]: 9.22

CCACGCUUCAAGCAAUCGGAC [Fam1B.1 aminoacylation ribozyme variant]
self-aminoacylation [1]: 0.666
self-aminoacylation [2]: 0.794
self-aminoacylation [3]: 0.696
self-aminoacylation [4]: 0.64
self-aminoacylation [5]: 1.87
self-aminoacylation [6]: 1.24

CCACUAUUCAAGCAAUCGGUC [Fam1B.1 aminoacylation ribozyme variant]
self-aminoacylation [1]: 1.09
self-aminoacylation [2]: 1.04
self-aminoacylation [3]: 0.944
self-aminoacylation [4]: 0.916
self-aminoacylation [5]: 1.75
self-aminoacylation [6]: 1.23

CCACUCUUCAAGCAGUCGGUC [Fam1B.1 aminoacylation ribozyme variant]
self-aminoacylation [1]: 1.1
self-aminoacylation [2]: 1.04
self-aminoacylation [3]: 1.24
self-aminoacylation [4]: 1.03
self-aminoacylation [5]: 1.07
self-aminoacylation [6]: 1.28
